B1: ZNF8 (parent)
chain: KPYTCSVCGKSFSRTTCLFLHLRT

Variants of: B1
Test: protein stability index of a GFP-peptide fusion (GPS, HEK-293T) (PSI 1-6); higher = more stable
Details: c terminus: a fixed tail appended
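Further: lentivirally expressed fusions sorted by FACS into six bins by GFP to DsRed ratio, PSI derived from sequencing read proportions per bin multiplied by bin number.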

Variant	protein stability index
KPYTCSVCGCSFSRTTCLFLHLRT [K10C]	1.77
KPYTCSVCGTSFSRTTCLFLHLRT [K10T]	2.25
KPYTCSVCGSSFSRTTCLFLHLRT [K10S]	1.52
KPYTCSVCGASFSRTTCLFLHLRT [K10A]	1.79
KPYTCSVCGMSFSRTTCLFLHLRT [K10M]	2.88
KPYTCSVCGESFSRTTCLFLHLRT [K10E]	1.47
KPYTCSVCGISFSRTTCLFLHLRT [K10I]	1.65
KPYTCSVCGFSFSRTTCLFLHLRT [K10F]	1.85
KPYTCSVCGPSFSRTTCLFLHLRT [K10P]	2.84
KPYTCSVCGYSFSRTTCLFLHLRT [K10Y]	2.21
KPYTCSVCGVSFSRTTCLFLHLRT [K10V]	1.83
KPYTCSVCGRSFSRTTCLFLHLRT [K10R]	1.87
KPYTCSVCGHSFSRTTCLFLHLRT [K10H]	1.86
KPYTCSVCGQSFSRTTCLFLHLRT [K10Q]	2.18
KPYTCSVCGWSFSRTTCLFLHLRT [K10W]	2.83
KPYTCSVCGGSFSRTTCLFLHLRT [K10G]	2.24
KPYTCSVCGLSFSRTTCLFLHLRT [K10L]	1.94
KPYTCSVCGDSFSRTTCLFLHLRT [K10D]	2.03
KPYTCSVCGNSFSRTTCLFLHLRT [K10N]	2
KPYTCSVCGKHFSRTTCLFLHLRT [S11H]	3.04
KPYTCSVCGKAFSRTTCLFLHLRT [S11A]	2.08
KPYTCSVCGKNFSRTTCLFLHLRT [S11N]	2.12
KPYTCSVCGKEFSRTTCLFLHLRT [S11E]	2.67
KPYTCSVCGKPFSRTTCLFLHLRT [S11P]	1.72

Variant	protein stability index
KPYTCSVCGKFFSRTTCLFLHLRT [S11F]	1.72
KPYTCSVCGKCFSRTTCLFLHLRT [S11C]	1.91
KPYTCSVCGKDFSRTTCLFLHLRT [S11D]	1.88
KPYTCSVCGKMFSRTTCLFLHLRT [S11M]	1.76
KPYTCSVCGKLFSRTTCLFLHLRT [S11L]	1.69
KPYTCSVCGKKFSRTTCLFLHLRT [S11K]	2.92
KPYTCSVCGKIFSRTTCLFLHLRT [S11I]	2.33
KPYTCSVCGKGFSRTTCLFLHLRT [S11G]	1.51
RPYTCSVCGKSFSRTTCLFLHLRT [K1R]	2.26
YPYTCSVCGKSFSRTTCLFLHLRT [K1Y]	2.24
NPYTCSVCGKSFSRTTCLFLHLRT [K1N]	2.36
PPYTCSVCGKSFSRTTCLFLHLRT [K1P]	1.91
WPYTCSVCGKSFSRTTCLFLHLRT [K1W]	1.74
FPYTCSVCGKSFSRTTCLFLHLRT [K1F]	2.19
IPYTCSVCGKSFSRTTCLFLHLRT [K1I]	2.04
LPYTCSVCGKSFSRTTCLFLHLRT [K1L]	2.27
MPYTCSVCGKSFSRTTCLFLHLRT [K1M]	2.22
QPYTCSVCGKSFSRTTCLFLHLRT [K1Q]	2.39
VPYTCSVCGKSFSRTTCLFLHLRT [K1V]	1.72
HPYTCSVCGKSFSRTTCLFLHLRT [K1H]	2.1
TPYTCSVCGKSFSRTTCLFLHLRT [K1T]	1.67
SPYTCSVCGKSFSRTTCLFLHLRT [K1S]	1.93
GPYTCSVCGKSFSRTTCLFLHLRT [K1G]	2.48

Source: the supplement of paper PMC10567573
